Measured values: IntAct's records for PubMed 31515488

B1: Late cornified envelope protein 1B (Homo sapiens), Q5T7P3 (parent)
chain: MSCQQNQQQCQPPPKCIPKCPPKCLTPRCPPKCPPKCPPVSSCCSVSSGGCCGSSSGGSCGSSSGGCCSSGGGGCCLSHHRRRRSHCHRPQSSGCCSQPSGGSSCCGGGSGQHSGGCC
B2: Cyclin-D1-binding protein 1 (Homo sapiens), O95273 (parent)
chain: MASATAPAAAVPTLASPLEQLRHLAEELRLLLPRVRVGEAQETTEEFNREMFWRRLNEAAVTVSREATTLTIVFSQLPLPSPQETQKFCEQVHAAIKAFIAVYYLLPKDQGITLRKLVRGATLDIVDGMAQLMEVLSVTPTQSPENNDLISYNSVWVACQQMPQIPRDNKAAALLMLTKNVDFVKDAHEEMEQAVEECDPYSGLLNDTEENNSDNHNHEDDVLGFPSNQDLYWSEDDQELIIPCLALVRASKACLKKIRMLVAENGKKDQVAQLDDIVDISDEISPSVDDLALSIYPPMCHLTVRINSAKLVSVLKKALEITKASHVTPQPEDSWIPLLINAIDHCMNRIKELTQSELEL
B3: Dystrobrevin beta (Homo sapiens), O60941 (parent)
chain: MIEESGNKRKTMAEKRQLFIEMRAQNFDVIRLSTYRTACKLRFVQKRCNLHLVDIWNMIEAFRDNGLNTLDHTTEISVSRLETVISSIYYQLNKRLPSTHQISVEQSISLLLNFMIAAYDSEGRGKLTVFSVKAMLATMCGGKMLDKLRYVFSQMSDSNGLMIFSKFDQFLKEVLKLPTAVFEGPSFGYTEHSVRTCFPQQRKIMLNMFLDTMMADPPPQCLVWLPLMHRLAHVENVFHPVECSYCRCESMMGFRYRCQQCHNYQLCQNCFWRGHAGGPHSNQHQMKEHSSWKSPAKKLSHAISKSLGCVPTREPPHPVFPEQPEKPLDLAHIVPPRPLTNMNDTMVSHMSSGVPTPTKRLQYSQDIPSHLADEHALIASYVARLQHCARVLDSPSRLDEEHRLIARYAARLAAEAGNVTRPPTDLSFNFDANKQQRQLIAELENKNREILQEIQRLRLEHEQASQPTPEKAQQNPTLLAELRLLRQRKDELEQRMSALQESRRELMVQLEELMKLLKEEEQKQAAQATGSPHTSPTHGGGRPMPMPVRSTSAGSTPTHCPQDSLSGVGGDVQEAFAQGTRRNLRNDLLVAADSITNTMSSLVKELHSAEEGAEEEEEKMQNGKDRG

Variants of: B1
Conditions: with hxa1_human HOXA1, P49639
Chain of hxa1_human HOXA1, P49639 (P49639 whole entry): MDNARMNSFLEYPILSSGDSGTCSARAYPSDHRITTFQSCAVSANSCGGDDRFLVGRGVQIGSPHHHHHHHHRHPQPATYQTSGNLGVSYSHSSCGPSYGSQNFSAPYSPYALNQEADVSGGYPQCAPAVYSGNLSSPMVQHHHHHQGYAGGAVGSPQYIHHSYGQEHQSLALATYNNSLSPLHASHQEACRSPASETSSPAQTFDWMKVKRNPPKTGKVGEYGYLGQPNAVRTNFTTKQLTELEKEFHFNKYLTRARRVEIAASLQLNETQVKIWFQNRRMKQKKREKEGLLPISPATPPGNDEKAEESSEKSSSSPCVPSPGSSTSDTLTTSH

| Variant | effect of a mutation on the interaction |
| --- | --- |
| H113Q | with no effect |

Variants of: B1
Conditions: with nt2na_human NOTCH2NLA

| Variant | effect of a mutation on the interaction |
| --- | --- |
| H113Q | with no effect |

Variants of: B1
Conditions: with kr101_human KRTAP10-1, P60331

| Variant | effect of a mutation on the interaction |
| --- | --- |
| H113Q | with no effect |

Variants of: B1
Conditions: with otx1_human OTX1, P32242

| Variant | effect of a mutation on the interaction |
| --- | --- |
| H113Q | with no effect |

Variants of: B2
Conditions: with ezh1_human EZH1, Q92800

| Variant | effect of a mutation on the interaction |
| --- | --- |
| I277T | disrupting interaction strength |

Variants of: B2
Conditions: with pex39_human PEX39, Q5I0X4
Chain of pex39_human PEX39, Q5I0X4 (Q5I0X4 whole entry): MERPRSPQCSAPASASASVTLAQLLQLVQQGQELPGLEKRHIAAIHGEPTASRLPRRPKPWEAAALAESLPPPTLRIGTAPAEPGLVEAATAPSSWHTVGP

| Variant | effect of a mutation on the interaction |
| --- | --- |
| I277T | disrupting interaction strength |

Variants of: B2
Conditions: with evg1_human C22orf23, Q9BZE7
Chain of evg1_human C22orf23, Q9BZE7 (Q9BZE7 whole entry): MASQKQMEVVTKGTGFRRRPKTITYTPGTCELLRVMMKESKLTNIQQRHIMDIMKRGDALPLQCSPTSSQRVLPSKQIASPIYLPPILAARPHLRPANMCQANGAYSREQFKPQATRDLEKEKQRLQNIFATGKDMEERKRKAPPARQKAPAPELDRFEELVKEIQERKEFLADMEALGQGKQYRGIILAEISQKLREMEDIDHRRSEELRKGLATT

| Variant | effect of a mutation on the interaction |
| --- | --- |
| I277T | disrupting interaction strength |

Variants of: B2
Conditions: with map7_human MAP7, Q14244
Chain of map7_human MAP7, Q14244 (Q14244 whole entry): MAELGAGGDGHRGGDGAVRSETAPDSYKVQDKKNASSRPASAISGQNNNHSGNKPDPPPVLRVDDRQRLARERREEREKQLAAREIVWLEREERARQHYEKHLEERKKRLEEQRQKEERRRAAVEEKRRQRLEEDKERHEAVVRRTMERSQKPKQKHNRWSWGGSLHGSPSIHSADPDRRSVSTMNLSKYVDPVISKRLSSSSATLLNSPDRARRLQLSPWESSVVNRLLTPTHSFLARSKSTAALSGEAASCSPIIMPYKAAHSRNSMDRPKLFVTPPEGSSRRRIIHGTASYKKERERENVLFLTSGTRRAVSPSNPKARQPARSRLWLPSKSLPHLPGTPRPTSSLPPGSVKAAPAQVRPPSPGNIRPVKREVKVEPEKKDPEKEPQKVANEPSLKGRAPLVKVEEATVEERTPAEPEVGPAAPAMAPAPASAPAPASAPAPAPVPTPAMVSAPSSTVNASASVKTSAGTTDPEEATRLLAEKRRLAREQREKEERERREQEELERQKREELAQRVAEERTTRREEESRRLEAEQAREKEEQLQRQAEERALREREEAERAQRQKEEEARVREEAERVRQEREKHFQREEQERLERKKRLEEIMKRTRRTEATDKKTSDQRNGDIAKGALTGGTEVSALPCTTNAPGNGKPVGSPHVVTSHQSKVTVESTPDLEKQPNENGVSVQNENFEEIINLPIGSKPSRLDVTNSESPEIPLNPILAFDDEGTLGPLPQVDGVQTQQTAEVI

| Variant | effect of a mutation on the interaction |
| --- | --- |
| I277T | disrupting interaction strength |

Variants of: B2
Conditions: with myp2_human PMP2, P02689

| Variant | effect of a mutation on the interaction |
| --- | --- |
| I277T | disrupting interaction strength |

Variants of: B2
Conditions: with rl39l_human RPL39L

| Variant | effect of a mutation on the interaction |
| --- | --- |
| I277T | disrupting interaction strength |

Variants of: B2
Conditions: with zn707_human ZNF707, Q96C28

| Variant | effect of a mutation on the interaction |
| --- | --- |
| I277T | disrupting interaction strength |

Variants of: B2
Conditions: with bmp7_human BMP7, P18075

| Variant | effect of a mutation on the interaction |
| --- | --- |
| I277T | disrupting interaction strength |

Variants of: B2
Conditions: with zn136_human ZNF136, P52737
Chain of zn136_human ZNF136, P52737 (P52737 whole entry): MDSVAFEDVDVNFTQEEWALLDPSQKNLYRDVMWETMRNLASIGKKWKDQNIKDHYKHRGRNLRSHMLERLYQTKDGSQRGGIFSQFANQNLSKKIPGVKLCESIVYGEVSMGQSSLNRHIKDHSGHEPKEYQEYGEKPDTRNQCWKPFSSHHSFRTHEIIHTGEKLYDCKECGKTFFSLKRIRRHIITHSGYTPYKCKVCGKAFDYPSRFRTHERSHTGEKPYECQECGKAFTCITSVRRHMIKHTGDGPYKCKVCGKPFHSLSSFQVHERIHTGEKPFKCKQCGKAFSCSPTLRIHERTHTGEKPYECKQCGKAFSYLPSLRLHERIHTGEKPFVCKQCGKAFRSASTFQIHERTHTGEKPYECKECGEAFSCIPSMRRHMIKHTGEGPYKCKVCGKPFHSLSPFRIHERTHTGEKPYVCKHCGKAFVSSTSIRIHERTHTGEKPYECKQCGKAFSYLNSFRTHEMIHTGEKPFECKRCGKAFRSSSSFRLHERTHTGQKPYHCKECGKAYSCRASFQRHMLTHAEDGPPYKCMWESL

| Variant | effect of a mutation on the interaction |
| --- | --- |
| I277T | disrupting interaction strength |

Variants of: B2
Conditions: with cul5_human CUL5, Q93034
Chain of cul5_human CUL5, Q93034 (Q93034 whole entry): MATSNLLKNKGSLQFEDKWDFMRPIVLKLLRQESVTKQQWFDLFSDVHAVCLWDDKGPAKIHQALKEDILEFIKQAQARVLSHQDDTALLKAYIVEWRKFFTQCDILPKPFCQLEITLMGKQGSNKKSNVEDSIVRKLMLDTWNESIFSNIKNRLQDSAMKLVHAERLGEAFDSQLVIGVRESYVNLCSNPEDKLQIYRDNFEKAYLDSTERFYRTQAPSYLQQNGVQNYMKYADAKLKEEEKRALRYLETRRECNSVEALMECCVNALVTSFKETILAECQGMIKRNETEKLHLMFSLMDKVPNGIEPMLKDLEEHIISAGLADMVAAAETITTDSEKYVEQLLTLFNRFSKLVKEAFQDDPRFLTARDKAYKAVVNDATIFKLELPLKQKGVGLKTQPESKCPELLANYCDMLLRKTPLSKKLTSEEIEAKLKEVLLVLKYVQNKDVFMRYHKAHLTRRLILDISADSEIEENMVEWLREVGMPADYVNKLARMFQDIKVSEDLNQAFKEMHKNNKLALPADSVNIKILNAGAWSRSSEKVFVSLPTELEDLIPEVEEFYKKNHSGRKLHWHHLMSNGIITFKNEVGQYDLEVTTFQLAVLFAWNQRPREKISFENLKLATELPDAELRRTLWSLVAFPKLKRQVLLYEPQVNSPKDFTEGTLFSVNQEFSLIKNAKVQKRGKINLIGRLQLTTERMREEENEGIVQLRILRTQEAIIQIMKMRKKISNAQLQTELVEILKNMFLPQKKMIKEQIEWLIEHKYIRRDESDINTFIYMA

| Variant | effect of a mutation on the interaction |
| --- | --- |
| I277T | disrupting interaction strength |

Variants of: B2
Conditions: with zn555_human ZNF555, Q8NEP9

| Variant | effect of a mutation on the interaction |
| --- | --- |
| I277T | disrupting interaction strength |

Variants of: B2
Conditions: with ilf2_human ILF2, Q12905
Chain of ilf2_human ILF2, Q12905 (Q12905 whole entry): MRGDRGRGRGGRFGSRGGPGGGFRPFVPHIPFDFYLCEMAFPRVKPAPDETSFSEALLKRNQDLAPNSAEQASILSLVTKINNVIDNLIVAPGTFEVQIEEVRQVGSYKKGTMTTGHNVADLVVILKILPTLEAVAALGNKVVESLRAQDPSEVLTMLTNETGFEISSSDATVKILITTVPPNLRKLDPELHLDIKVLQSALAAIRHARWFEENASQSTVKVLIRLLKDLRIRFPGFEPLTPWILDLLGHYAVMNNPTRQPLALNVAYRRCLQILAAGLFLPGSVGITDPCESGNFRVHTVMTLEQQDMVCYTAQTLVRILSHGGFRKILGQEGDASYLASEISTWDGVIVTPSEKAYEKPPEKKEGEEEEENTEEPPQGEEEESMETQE

| Variant | effect of a mutation on the interaction |
| --- | --- |
| I277T | disrupting interaction strength |

Variants of: B2
Conditions: with tnnt1_human TNNT1, P13805
Chain of tnnt1_human TNNT1, P13805 (P13805 whole entry): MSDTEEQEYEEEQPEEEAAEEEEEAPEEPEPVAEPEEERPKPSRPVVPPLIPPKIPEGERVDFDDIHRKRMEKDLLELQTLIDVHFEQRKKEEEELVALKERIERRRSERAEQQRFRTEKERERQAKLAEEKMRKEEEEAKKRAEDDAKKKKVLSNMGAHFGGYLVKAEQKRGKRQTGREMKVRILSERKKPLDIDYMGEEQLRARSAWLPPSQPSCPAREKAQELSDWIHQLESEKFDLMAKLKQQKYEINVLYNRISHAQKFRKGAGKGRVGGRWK

| Variant | effect of a mutation on the interaction |
| --- | --- |
| I277T | disrupting interaction strength |

Variants of: B2
Conditions: with nano2_human NANOS2, P60321

| Variant | effect of a mutation on the interaction |
| --- | --- |
| I277T | disrupting interaction strength |

Variants of: B2
Conditions: with tha10_human THAP10, Q9P2Z0
Chain of tha10_human THAP10, Q9P2Z0 (Q9P2Z0 whole entry): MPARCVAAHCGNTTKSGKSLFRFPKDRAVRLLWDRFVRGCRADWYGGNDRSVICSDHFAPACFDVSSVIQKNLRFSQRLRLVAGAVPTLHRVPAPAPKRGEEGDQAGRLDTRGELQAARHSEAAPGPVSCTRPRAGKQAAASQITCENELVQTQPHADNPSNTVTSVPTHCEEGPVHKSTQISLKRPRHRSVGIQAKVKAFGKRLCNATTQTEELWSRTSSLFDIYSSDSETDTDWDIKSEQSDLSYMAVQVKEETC

| Variant | effect of a mutation on the interaction |
| --- | --- |
| I277T | disrupting interaction strength |

Variants of: B2
Conditions: with tppc5_human TRAPPC5, Q8IUR0
Chain of tppc5_human TRAPPC5, Q8IUR0 (Q8IUR0 whole entry): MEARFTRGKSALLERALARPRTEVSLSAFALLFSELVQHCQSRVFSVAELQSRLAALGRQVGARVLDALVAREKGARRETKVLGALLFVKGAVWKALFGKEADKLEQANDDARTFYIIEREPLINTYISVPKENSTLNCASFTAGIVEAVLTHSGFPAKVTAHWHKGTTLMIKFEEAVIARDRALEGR

| Variant | effect of a mutation on the interaction |
| --- | --- |
| I277T | disrupting interaction strength |

Variants of: B3
Conditions: with cep63_human CEP63, Q96MT8

| Variant | effect of a mutation on the interaction |
| --- | --- |
| R80H | with no effect |

Variants of: B3
Conditions: with traf2_human TRAF2, Q12933
Chain of traf2_human TRAF2, Q12933 (Q12933 whole entry): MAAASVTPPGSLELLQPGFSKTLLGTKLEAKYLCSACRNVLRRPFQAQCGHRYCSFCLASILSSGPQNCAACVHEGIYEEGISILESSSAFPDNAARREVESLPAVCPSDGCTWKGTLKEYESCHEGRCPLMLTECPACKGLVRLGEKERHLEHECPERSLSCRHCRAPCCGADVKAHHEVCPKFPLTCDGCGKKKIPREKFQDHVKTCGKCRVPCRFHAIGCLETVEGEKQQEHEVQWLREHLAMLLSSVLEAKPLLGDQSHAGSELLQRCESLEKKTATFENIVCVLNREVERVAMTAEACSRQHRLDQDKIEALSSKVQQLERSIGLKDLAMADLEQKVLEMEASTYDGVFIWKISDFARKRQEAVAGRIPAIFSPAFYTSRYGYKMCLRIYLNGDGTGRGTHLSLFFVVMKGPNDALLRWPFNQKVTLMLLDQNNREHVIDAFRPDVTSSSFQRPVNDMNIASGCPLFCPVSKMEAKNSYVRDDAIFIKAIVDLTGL

| Variant | effect of a mutation on the interaction |
| --- | --- |
| R80H | with no effect |
| S396G | with no effect |

Variants of: B3
Conditions: with tera_human VCP

| Variant | effect of a mutation on the interaction |
| --- | --- |
| R80H | with no effect |
| S396G | with no effect |

Variants of: B3
Conditions: with abi2_human ABI2, Q9NYB9
Chain of abi2_human ABI2, Q9NYB9 (Q9NYB9 whole entry): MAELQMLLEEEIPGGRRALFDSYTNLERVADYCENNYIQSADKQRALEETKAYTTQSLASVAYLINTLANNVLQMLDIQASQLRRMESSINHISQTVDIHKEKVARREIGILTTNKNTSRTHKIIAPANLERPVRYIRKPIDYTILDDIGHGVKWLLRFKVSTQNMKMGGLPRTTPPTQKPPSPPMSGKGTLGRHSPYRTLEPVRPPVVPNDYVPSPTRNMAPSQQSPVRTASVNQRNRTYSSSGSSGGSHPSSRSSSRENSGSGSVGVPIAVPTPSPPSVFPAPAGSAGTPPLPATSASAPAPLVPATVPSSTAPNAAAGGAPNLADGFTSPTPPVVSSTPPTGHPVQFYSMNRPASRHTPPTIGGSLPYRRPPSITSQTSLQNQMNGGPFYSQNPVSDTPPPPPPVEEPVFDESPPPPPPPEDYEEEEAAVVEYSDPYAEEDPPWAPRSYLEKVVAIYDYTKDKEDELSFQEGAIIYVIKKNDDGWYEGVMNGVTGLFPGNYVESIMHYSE

| Variant | effect of a mutation on the interaction |
| --- | --- |
| R80H | with no effect |

Variants of: B3
Conditions: with lipa1_human PPFIA1, Q13136

| Variant | effect of a mutation on the interaction |
| --- | --- |
| S396G | with no effect |

Variants of: B3
Conditions: with dmd_human DMD

| Variant | effect of a mutation on the interaction |
| --- | --- |
| S396G | with no effect |
